# T1: SNTA1, Q13424
# T1 sequence (Q13424 82-180, limits assumed, looked up): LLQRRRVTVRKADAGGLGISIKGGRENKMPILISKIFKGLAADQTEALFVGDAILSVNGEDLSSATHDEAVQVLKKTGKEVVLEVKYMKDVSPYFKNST
# T2: HTRA3, P83110
# T2 sequence (P83110 354-453, limits assumed, looked up): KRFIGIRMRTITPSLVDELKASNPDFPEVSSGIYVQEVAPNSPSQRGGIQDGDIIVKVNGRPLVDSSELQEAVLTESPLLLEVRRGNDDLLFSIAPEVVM
# T3: DLG3_3, Q92796
# T3 sequence (Q92796 374-475, limits assumed, looked up): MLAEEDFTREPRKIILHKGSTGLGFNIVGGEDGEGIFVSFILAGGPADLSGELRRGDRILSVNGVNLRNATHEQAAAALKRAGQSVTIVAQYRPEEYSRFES
# T4: RHPN1, Q8TCX5
# T4 sequence (Q8TCX5 508-602, limits assumed, looked up): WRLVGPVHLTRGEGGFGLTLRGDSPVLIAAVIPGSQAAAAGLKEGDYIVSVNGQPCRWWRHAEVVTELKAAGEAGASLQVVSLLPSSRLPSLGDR
# T5: LIN7C, Q9NUP9
# T5 sequence (Q9NUP9 88-185, limits assumed, looked up): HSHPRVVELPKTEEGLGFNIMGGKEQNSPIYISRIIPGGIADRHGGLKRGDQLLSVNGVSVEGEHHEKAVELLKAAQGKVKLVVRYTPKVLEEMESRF
# T6: LIN7B, Q9HAP6
# T6 sequence (Q9HAP6 88-185, limits assumed, looked up): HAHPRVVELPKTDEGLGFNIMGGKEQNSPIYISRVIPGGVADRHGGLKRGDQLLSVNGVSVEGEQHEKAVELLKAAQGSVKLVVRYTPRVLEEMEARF
# T7: NHERF3_3, Q5T2W1
# T7 sequence (Q5T2W1 238-333, limits assumed, looked up): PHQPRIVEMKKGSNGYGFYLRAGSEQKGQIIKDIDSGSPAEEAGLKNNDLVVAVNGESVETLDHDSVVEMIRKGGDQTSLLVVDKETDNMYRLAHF
# T8: APBA1_2, Q02410
# T8 sequence (Q02410 742-832, limits assumed, looked up): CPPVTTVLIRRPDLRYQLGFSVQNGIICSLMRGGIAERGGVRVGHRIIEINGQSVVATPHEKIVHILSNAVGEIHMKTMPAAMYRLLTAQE
# Assays:
# Experiment in all cases: holdup assay
# Set-up in all cases: key: below the threshold = too weak to quantify, mostly under pKd 3.1 to 4
# Details in all cases: plain residues with an end cap or a label only (N-terminal biotin on a linker: ado-ado)
# SNTA1, Q13424 = molecular target: T1, SNTA1, Q13424
# DLG2_2, Q15700 = molecular target: DLG2_2, Q15700
# DLG4_3, P78352 = molecular target: DLG4_3, P78352
# GORASP1, Q9BQQ3 = molecular target: GORASP1, Q9BQQ3
# MAGI3_2, Q5TCQ9 = molecular target: MAGI3_2, Q5TCQ9
# HTRA3, P83110 = molecular target: T2, HTRA3, P83110
# ARHGEF12, Q9NZN5-2 = molecular target: ARHGEF12, Q9NZN5-2
# DLG3_3, Q92796 = molecular target: T3, DLG3_3, Q92796
# RHPN1, Q8TCX5 = molecular target: T4, RHPN1, Q8TCX5
# FRMPD2_2, Q68DX3 = molecular target: FRMPD2_2, Q68DX3
# Inadl_4, Q8NI35 = molecular target: Inadl_4, Q8NI35
# GRIP2_3, Q9C0E4 = molecular target: GRIP2_3, Q9C0E4
# LIN7C, Q9NUP9 = molecular target: T5, LIN7C, Q9NUP9
# LNX1_2, Q8TBB1 = molecular target: LNX1_2, Q8TBB1
# FRMPD2_1, Q68DX3 = molecular target: FRMPD2_1, Q68DX3
# Inadl_6, Q8NI35 = molecular target: Inadl_6, Q8NI35
# Inadl_1, Q8NI35 = molecular target: Inadl_1, Q8NI35
# MAGI2_3, Q86UL8 = molecular target: MAGI2_3, Q86UL8
# MAGI1_2, Q96QZ7 = molecular target: MAGI1_2, Q96QZ7
# PARD3_3, Q8TEW0 = molecular target: PARD3_3, Q8TEW0
# MAST2, Q6P0Q8 = molecular target: MAST2, Q6P0Q8
# GOPC, Q9HD26 = molecular target: GOPC, Q9HD26
# LIN7B, Q9HAP6 = molecular target: T6, LIN7B, Q9HAP6
# Inadl_8, Q8NI35 = molecular target: Inadl_8, Q8NI35
# LNX1_3, Q8TBB1 = molecular target: LNX1_3, Q8TBB1
# NHERF4_4, Q86UT5 = molecular target: NHERF4_4, Q86UT5
# NHERF3_3, Q5T2W1 = molecular target: T7, NHERF3_3, Q5T2W1
# Inadl_10, Q8NI35 = molecular target: Inadl_10, Q8NI35
# APBA1_2, Q02410 = molecular target: T8, APBA1_2, Q02410
# FRMPD3, Q5JV73 = molecular target: FRMPD3, Q5JV73
# DLG1_1, Q12959 = molecular target: DLG1_1, Q12959
# MAGI3_2, Q5TCQ9, sequence (Q5TCQ9 398-503): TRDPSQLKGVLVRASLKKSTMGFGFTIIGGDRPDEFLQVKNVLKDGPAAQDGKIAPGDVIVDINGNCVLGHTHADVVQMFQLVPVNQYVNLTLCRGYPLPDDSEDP
# Inadl_8, Q8NI35, sequence (Q8NI35 1425-1530): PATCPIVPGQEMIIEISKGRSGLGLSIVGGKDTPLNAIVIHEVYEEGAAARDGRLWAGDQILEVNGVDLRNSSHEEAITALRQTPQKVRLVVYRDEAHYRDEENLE
# MAGI2_3, Q86UL8, sequence (Q86UL8 600-682): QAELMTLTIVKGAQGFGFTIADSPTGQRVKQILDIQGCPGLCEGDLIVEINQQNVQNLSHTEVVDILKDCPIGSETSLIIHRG
# LNX1_3, Q8TBB1, sequence (Q8TBB1 500-596): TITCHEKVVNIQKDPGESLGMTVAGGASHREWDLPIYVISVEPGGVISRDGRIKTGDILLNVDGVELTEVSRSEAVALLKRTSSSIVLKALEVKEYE
# FRMPD2_2, Q68DX3, sequence (Q68DX3 944-1038): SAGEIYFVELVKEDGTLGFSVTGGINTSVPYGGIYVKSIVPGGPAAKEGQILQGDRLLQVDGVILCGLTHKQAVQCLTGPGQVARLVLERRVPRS
# Inadl_10, Q8NI35, sequence (Q8NI35 1673-1763): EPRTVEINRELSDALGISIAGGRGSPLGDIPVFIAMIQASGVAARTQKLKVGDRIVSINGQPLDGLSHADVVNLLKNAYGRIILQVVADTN
# Inadl_6, Q8NI35, sequence (Q8NI35 1058-1167): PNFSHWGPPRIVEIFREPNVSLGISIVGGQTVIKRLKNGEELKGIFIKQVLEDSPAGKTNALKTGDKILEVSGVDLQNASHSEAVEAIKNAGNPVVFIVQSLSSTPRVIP
# MAST2, Q6P0Q8, sequence (Q6P0Q8 1099-1202): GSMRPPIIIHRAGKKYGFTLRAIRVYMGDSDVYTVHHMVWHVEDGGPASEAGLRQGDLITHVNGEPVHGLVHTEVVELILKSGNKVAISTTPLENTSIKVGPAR
# NHERF4_4, Q86UT5, sequence (Q86UT5 464-550): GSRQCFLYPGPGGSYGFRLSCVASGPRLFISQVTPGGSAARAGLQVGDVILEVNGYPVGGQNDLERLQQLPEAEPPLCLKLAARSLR
# DLG4_3, P78352, sequence (P78352 306-403): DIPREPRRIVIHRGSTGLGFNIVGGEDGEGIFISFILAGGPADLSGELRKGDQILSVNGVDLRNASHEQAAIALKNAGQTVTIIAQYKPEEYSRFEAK
# Inadl_1, Q8NI35, sequence (Q8NI35 113-229): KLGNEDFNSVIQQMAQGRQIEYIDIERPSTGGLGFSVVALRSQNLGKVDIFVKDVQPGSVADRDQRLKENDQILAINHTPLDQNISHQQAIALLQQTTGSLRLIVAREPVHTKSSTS
# LNX1_2, Q8TBB1, sequence (Q8TBB1 371-470): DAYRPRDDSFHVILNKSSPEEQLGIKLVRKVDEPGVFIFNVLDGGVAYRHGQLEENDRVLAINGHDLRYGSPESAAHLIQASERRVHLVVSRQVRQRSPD
# Inadl_4, Q8NI35, sequence (Q8NI35 547-651): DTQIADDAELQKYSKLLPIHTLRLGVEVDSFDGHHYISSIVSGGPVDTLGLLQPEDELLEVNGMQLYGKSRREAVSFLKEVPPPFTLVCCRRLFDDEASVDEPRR
# GORASP1, Q9BQQ3, sequence (Q9BQQ3 1-208): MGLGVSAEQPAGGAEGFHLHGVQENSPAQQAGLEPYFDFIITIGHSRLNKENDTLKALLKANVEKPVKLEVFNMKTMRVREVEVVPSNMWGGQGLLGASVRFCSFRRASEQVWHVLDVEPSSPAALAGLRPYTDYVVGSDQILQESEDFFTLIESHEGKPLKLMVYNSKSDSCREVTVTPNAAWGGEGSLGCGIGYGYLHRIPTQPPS
# MAGI1_2, Q96QZ7, sequence (Q96QZ7 456-580): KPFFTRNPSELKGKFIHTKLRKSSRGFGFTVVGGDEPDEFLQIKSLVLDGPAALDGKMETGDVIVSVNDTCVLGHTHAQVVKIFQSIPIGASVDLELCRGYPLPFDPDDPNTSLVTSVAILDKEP
# DLG2_2, Q15700, sequence (Q15700 189-283): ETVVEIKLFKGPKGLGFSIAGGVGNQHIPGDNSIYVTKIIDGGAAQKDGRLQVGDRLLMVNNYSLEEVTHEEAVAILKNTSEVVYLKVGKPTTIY
# GRIP2_3, Q9C0E4, sequence (Q9C0E4 238-339): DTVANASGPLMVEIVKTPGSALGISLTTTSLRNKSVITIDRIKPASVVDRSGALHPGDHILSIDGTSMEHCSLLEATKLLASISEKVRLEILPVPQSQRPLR
# PARD3_3, Q8TEW0, sequence (Q8TEW0 582-685): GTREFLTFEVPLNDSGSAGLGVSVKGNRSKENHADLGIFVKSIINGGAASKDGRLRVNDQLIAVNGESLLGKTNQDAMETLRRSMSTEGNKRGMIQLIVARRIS
# FRMPD2_1, Q68DX3, sequence (Q68DX3 770-861): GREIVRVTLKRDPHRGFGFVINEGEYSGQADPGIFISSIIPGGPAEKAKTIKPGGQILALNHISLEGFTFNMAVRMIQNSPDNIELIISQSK
# FRMPD3, Q5JV73, sequence (Q5JV73 12-100): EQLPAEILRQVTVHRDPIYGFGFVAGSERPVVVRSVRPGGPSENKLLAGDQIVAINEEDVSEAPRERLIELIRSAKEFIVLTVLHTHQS
# ARHGEF12, Q9NZN5-2, sequence (Q9NZN5 other isoform, or with tags, fused parts or gaps): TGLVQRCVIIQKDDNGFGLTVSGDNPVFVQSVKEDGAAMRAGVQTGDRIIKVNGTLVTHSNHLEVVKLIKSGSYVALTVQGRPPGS
Binder,"pKd (SNTA1, Q13424)","pKd (DLG2_2, Q15700)","pKd (DLG4_3, P78352)","pKd (GORASP1, Q9BQQ3)","pKd (MAGI3_2, Q5TCQ9)","pKd (HTRA3, P83110)","pKd (ARHGEF12, Q9NZN5-2)","pKd (DLG3_3, Q92796)","pKd (RHPN1, Q8TCX5)","pKd (FRMPD2_2, Q68DX3)","pKd (Inadl_4, Q8NI35)","pKd (GRIP2_3, Q9C0E4)","pKd (LIN7C, Q9NUP9)","pKd (LNX1_2, Q8TBB1)","pKd (FRMPD2_1, Q68DX3)","pKd (Inadl_6, Q8NI35)","pKd (Inadl_1, Q8NI35)","pKd (MAGI2_3, Q86UL8)","pKd (MAGI1_2, Q96QZ7)","pKd (PARD3_3, Q8TEW0)",other results
"PEKVSNTTVV [IGSF5, Q9NSI5]",3.93,4.44,below the threshold,4.13,4.44,below the threshold,4.21,below the threshold,3.67,below the threshold,below the threshold,below the threshold,below the threshold,3.73,below the threshold,below the threshold,below the threshold,3.51,3.54,below the threshold,"pKd (MAST2, Q6P0Q8): 4.99; pKd (GOPC, Q9HD26): 3.61; pKd (LIN7B, Q9HAP6): 3.69; pKd (Inadl_8, Q8NI35): below the threshold; pKd (LNX1_3, Q8TBB1): below the threshold; pKd (NHERF4_4, Q86UT5): below the threshold; pKd (NHERF3_3, Q5T2W1): below the threshold; pKd (Inadl_10, Q8NI35): below the threshold; pKd (APBA1_2, Q02410): 3.51; pKd (FRMPD3, Q5JV73): below the threshold; pKd (DLG1_1, Q12959): 4.25"
"AHGSTRDQSI [KCNB1, Q14721]",below the threshold,3.86,below the threshold,below the threshold,below the threshold,below the threshold,below the threshold,3.75,below the threshold,below the threshold,below the threshold,below the threshold,below the threshold,below the threshold,3.65,below the threshold,below the threshold,below the threshold,below the threshold,below the threshold,"pKd (MAST2, Q6P0Q8): below the threshold; pKd (GOPC, Q9HD26): below the threshold; pKd (LIN7B, Q9HAP6): 3.68; pKd (Inadl_8, Q8NI35): below the threshold; pKd (LNX1_3, Q8TBB1): below the threshold; pKd (NHERF4_4, Q86UT5): 4.01; pKd (NHERF3_3, Q5T2W1): below the threshold; pKd (Inadl_10, Q8NI35): below the threshold; pKd (APBA1_2, Q02410): below the threshold; pKd (FRMPD3, Q5JV73): below the threshold; pKd (DLG1_1, Q12959): below the threshold"
"EAVTVESTSL [SLC22A11, Q9NSA0]",3.65,below the threshold,below the threshold,below the threshold,below the threshold,below the threshold,5.17,3.6,4.86,below the threshold,below the threshold,below the threshold,below the threshold,below the threshold,below the threshold,3.94,below the threshold,below the threshold,below the threshold,below the threshold,"pKd (MAST2, Q6P0Q8): 5.9; pKd (GOPC, Q9HD26): 4.18; pKd (LIN7B, Q9HAP6): below the threshold; pKd (Inadl_8, Q8NI35): below the threshold; pKd (LNX1_3, Q8TBB1): below the threshold; pKd (NHERF4_4, Q86UT5): below the threshold; pKd (NHERF3_3, Q5T2W1): below the threshold; pKd (Inadl_10, Q8NI35): below the threshold; pKd (APBA1_2, Q02410): 3.86; pKd (FRMPD3, Q5JV73): below the threshold; pKd (DLG1_1, Q12959): below the threshold"

# Source: article PMC9482650, “Quantitative fragmentomics allow affinity mapping of interactomes” (Nature Communications, 2022)
